The source of these data is patent US20090192084A1 (CALIFORNIA INSTITUTE OF TECHNOLOGY, published 2009).

The chains are these.
B1: Flag-p47 (other, UniProt O35987 1-370, looked up)
chain: MAEERQDALREFVAVTGAEEDRARFFLESAGWDLQIALASFYEDGGDEDIVTISQATPSSVSRGTAPSDNRVTSFRDLIHDQDEEEEEEEGQRFYAGGSERSGQQIVGPPRKKSPNELVDDLFKGAKEHGAVAVERVTKSPGETSKPRPFAGGGYRLGAAPEEESAYVAGERRRHSGQDVHVVLKLWKTGFSLDNGDLRSYQDPSNAQFLESIRRGEVPAELRRLAHGGQVNLDMEDHRDEDFVKPKGAFKAFTGEGQKLGSTAPQVLNTSSPAQQAENEAKASSSILINEAEPTTNIQIRLADGGRLVQKFNHSHRISDIRLFIVDARPAMAATSFVLMTTFPNKELADENQTLKEANLLNAVIVQRLT
notes: also called RDB 2148; not shown: N-terminal Flag tag

Assay [1] concerns the target T1, endogenous NPL4 (human, UniProt Q8TAT6-2 2-617, limits assumed).
T1 sequence (looked up): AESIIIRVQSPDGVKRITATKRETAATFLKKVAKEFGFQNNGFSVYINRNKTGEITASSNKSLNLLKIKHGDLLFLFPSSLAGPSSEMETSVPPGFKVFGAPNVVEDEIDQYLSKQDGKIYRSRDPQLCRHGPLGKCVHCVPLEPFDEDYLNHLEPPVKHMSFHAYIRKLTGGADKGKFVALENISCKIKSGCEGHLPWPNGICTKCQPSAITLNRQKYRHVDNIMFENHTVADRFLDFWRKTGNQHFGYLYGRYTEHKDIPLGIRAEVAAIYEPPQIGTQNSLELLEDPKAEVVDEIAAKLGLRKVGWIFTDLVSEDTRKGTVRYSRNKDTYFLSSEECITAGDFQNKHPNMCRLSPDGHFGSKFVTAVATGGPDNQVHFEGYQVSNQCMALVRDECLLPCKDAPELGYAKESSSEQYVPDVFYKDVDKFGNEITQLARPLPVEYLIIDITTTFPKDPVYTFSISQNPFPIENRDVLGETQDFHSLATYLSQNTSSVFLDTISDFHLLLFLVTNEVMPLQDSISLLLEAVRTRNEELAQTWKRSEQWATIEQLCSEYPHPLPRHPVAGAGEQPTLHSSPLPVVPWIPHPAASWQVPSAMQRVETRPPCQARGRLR
Nature of the assay: Flag co-IP, mass spectrometry and immunoblotting.

Assay [2] addresses T1, endogenous NPL4. In words: Flag co-IP, 293 cells, MudPIT MS. As to the method: (§1) For immunoprecipitation experiments, the cells were lysed in buffer A (50 mM HEPES/KOH, pH 7.5; 5 mM Mg(OAc)₂; 70 mM KOAc; 0.2% Triton X-100; 10% glycerol; 0.2 mM EDTA; protease inhibitors) and incubated with anti-Flag agarose beads (Sigma) or anti-Myc sepharose beads (Covance).
(§2) Mass spectrometrical sample analysis was performed as described previously (Graumann et al., 2004) using a high-pressure liquid chromatography pump (Agilent) in line to a LCQ DecaXP electrospray ion trap mass spectrometer (ThermoFinnigan). In brief, 2-4 mg of protein extract were incubated with anti-Flag or anti-Myc beads and the immunoprecipitated proteins were eluted with saturated urea. The eluates were then proteolitically digested using sequentially endoproteinase Lys-C and trypsin. The resulting peptide mixtures were pressure-loaded onto triphasic microcapillary columns and sample separation was achieved using a chromatography program consisting of six salt steps, each followed by an organic gradient. The eluting peptides were electrosprayed into the mass spectrometer and the column eluate was continuously analyzed. One full-range mass scan ([…]) was followed by three data-dependent tandem mass spectrometry (MS/MS) spectra. Sequence database matching was performed against the IPI human database (Kersey et al., 2004) version 3.15.1 using Sequest (Eng et al., 1994) and the results were filtered with DTASelect (Tabb et al., 2002), using the parameters indicated in Graumann et al. (2004).

Assay [3] deals with T2, endogenous p97 (human, UniProt P55072 2-806).
T2 construct: also called VCP
Nature of the assay: Flag co-IP, 293 cells, MudPIT MS. Here is the method: as §1, §2

The target of assay [4] is T2, endogenous p97. In words: Flag co-IP from HeLa cells, western blot.
The target of assay [5] is T3, Cullin 1 (human, UniProt Q13616 1-776, limits assumed).
T3 construct: also called CUL1
In words: Flag co-IP, HeLa cells, western blot. (In western blotting, separated proteins are transferred to a membrane and probed.)

Assay [6] addresses T4, Cullin 2 (human, UniProt Q13617 1-745).
T4 construct: also called CUL2
Nature of the assay: Flag co-IP, HeLa cells, western blot.

The target in assay [7] is B1. Nature of the assay: Flag co-IP, mass spectrometry and immunoblotting.
The target of assay [8] is T5, Ubiquitin conjugation factor E4 B, UBE4B (Ufd2ortholog) (human, UniProt O95155 1-1302).
T5 sequence (looked up): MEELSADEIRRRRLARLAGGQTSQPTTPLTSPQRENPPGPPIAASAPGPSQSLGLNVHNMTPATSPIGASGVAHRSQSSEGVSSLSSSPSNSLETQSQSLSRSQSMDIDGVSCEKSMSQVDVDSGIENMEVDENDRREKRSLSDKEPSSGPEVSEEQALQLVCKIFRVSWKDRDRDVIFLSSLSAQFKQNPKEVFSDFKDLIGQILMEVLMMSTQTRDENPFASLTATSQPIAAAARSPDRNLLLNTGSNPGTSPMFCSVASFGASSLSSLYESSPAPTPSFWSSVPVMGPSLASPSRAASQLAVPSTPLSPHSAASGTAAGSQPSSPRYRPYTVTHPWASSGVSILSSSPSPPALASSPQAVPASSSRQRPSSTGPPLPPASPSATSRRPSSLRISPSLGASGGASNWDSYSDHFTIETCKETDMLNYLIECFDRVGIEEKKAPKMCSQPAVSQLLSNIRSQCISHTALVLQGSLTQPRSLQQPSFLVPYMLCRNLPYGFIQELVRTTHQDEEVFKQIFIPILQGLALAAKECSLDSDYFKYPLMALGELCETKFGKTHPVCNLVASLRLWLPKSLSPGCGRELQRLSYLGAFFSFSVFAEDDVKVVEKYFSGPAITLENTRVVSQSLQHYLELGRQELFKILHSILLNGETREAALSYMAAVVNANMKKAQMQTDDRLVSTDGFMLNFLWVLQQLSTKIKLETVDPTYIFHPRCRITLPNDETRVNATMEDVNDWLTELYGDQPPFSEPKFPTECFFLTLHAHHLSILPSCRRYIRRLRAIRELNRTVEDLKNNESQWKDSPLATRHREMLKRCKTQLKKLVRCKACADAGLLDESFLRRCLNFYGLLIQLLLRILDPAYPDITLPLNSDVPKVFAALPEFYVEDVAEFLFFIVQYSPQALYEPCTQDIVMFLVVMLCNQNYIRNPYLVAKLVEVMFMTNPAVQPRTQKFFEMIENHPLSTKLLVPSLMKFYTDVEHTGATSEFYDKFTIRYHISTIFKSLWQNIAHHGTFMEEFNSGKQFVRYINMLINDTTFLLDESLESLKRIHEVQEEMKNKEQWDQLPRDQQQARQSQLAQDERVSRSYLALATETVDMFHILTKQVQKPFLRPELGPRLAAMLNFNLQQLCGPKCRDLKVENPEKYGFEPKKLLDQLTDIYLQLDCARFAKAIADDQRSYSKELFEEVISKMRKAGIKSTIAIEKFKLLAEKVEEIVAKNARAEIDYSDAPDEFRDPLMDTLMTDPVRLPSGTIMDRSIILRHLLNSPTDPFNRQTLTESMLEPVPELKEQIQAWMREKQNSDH
In words: co-IP, MudPIT MS.

For assay [9], the target named is T2, endogenous p97. Nature of the assay: Superdex 200 gel filtration of HeLa extracts, western blot.
Source text: Luc—luciferase (C) HeLa cell extracts were fractionated on a Superdex 200 gel filtration column. Individual fractions were concentrated by TCA precipitation and subjected to western blotting using specific antibodies. All proteins were endogenously expressed.

T2 sequence (P55072 2-806 limits assumed): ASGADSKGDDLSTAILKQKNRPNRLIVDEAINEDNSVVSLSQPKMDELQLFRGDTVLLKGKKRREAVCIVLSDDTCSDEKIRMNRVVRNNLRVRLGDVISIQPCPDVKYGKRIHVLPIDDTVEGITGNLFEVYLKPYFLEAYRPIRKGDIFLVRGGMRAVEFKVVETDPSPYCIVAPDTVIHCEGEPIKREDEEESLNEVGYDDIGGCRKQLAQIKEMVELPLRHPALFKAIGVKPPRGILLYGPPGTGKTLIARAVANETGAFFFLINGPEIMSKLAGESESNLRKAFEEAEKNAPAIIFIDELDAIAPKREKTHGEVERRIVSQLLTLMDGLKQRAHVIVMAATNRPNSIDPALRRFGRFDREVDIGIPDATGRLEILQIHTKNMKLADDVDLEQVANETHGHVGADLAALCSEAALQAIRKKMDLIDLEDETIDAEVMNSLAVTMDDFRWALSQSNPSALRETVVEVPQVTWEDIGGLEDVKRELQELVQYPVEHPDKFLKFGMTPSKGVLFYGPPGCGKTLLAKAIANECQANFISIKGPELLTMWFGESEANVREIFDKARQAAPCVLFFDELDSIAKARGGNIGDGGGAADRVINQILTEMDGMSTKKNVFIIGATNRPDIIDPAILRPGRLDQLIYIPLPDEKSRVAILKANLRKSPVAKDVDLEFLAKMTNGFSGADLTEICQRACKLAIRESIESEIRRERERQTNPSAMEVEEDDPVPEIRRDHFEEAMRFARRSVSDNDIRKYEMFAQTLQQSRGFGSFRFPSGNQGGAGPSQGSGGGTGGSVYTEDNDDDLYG
T4 sequence (Q13617 whole entry): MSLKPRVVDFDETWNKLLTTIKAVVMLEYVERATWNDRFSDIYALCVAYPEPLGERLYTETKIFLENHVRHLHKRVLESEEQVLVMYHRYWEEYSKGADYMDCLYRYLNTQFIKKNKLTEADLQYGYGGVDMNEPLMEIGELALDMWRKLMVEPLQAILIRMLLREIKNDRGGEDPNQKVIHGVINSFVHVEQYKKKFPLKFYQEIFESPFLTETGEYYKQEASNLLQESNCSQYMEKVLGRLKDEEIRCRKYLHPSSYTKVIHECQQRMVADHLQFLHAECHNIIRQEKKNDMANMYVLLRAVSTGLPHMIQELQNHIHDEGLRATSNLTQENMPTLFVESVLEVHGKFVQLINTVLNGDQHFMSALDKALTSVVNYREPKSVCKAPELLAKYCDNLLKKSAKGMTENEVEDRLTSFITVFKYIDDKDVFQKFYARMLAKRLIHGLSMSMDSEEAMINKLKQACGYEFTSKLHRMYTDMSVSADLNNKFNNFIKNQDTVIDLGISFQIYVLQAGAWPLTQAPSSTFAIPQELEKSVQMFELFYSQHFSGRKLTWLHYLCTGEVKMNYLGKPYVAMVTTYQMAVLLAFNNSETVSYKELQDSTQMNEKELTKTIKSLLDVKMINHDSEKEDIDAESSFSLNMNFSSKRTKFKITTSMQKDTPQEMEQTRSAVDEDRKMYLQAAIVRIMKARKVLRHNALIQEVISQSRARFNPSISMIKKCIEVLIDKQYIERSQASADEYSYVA
T3 sequence (Q13616 whole entry): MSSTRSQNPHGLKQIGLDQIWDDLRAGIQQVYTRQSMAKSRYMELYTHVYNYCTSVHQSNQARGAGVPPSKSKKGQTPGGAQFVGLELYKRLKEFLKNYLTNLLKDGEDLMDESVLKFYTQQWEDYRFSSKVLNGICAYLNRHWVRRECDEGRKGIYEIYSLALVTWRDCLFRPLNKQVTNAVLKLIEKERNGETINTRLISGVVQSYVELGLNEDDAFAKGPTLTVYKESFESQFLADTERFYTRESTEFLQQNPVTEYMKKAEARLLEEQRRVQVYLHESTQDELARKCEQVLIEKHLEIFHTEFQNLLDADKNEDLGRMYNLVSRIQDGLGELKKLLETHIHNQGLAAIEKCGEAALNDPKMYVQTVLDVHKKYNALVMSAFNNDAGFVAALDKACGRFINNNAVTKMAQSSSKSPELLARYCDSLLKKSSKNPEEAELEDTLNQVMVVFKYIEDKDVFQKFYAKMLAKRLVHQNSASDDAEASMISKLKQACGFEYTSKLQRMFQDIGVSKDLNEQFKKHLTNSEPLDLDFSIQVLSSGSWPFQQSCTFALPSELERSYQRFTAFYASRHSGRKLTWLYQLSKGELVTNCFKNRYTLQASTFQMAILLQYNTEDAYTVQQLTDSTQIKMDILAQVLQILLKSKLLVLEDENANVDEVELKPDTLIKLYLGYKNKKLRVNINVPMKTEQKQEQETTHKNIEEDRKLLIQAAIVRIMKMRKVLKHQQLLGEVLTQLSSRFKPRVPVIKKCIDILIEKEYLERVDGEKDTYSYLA

As to B1, the binding result in assay [1] is recorded as “no binding”. In addition, in assay [2], the sequence count was 2, the sequence coverage was 6% and the spectrum count amounted to 2. Besides, in assay [3], the sequence count is 172, the sequence coverage was found to be 82.7% and the spectrum count was 1610.

B2: Flag-UBXD7ΔUBX (other, not shown: small tags and cut ends)
chain: MAAHGGSAASSALKGLIQQFTTITGASESVGKHMLEACNNNLEMAVTMFLDGGGIAEEPSTSSASVSTVRPHTEEEVRAPIPQKQEILVEPEPLFGAPKRRRPARSIFDGFRDFQTETIRQEQELRNGGAIDKKLTTLADLFRPPIDLMHKGSFETAKECGQMQNKWLMINIQNVQDFACQCLNRDVWSNEAVKNIIREHFIFWQVYHDSEEGQRYIQFYKLGDFPYVSILDPRTGQKLVEWHQLDVSSFLDQVTGFLGEHGQLDGLSSSPPKKCARSESLIDASEDSQLEAAIRASLQETHFDSTQTKQDSRSDEESESELFSGSEEFISVCGSDEEEEVENLAKSRKSPHKDLGHRKEENRRPLTEPPVRTDPGTATNHQGLPAVDSEILEMPPEKAD
notes: also called UBXD7(1-400); truncated UBXD7
As for B2, the binding result in [4] is reported as “no binding”; in assay [5], “binds”; in [6] it was “binds”.

B3: endogenous UFD1 (other, human, UniProt Q92890-1 1-343, looked up)
chain: MFSFNMFDHPIPRVFQNRFSTQYRCFSVSMLAGPNDRSDVEKGGKIIMPPSALDQLSRLNITYPMLFKLTNKNSDRMTHCGVLEFVADEGICYLPHWMMQNLLLEEDGLVQLETVNLQVATYSKSKFCYLPHWMMQNLLLEEGGLVQVESVNLQVATYSKFQPQSPDFLDITNPKAVLENALRNFACLTTGDVIAINYNEKIYELRVMETKPDKAVSIIECDMNVDFDAPLGYKEPERQVQHEESTEGEADHSGYAGELGFRAFSGSGNRLDGKKKGVEPSPSPIKPGDIKRGIPNYEFKLGKITFIRNSRPLVKKVEEDEAGGRFVAFSGEGQSLRKKGRKP
As for B3, the binding result in assay [7] is recorded as “no binding”.

B4: Flag-UBXD7 (other, UniProt O94888 1-489, looked up)
chain: MAAHGGSAASSALKGLIQQFTTITGASESVGKHMLEACNNNLEMAVTMFLDGGGIAEEPSTSSASVSTVRPHTEEEVRAPIPQKQEILVEPEPLFGAPKRRRPARSIFDGFRDFQTETIRQEQELRNGGAIDKKLTTLADLFRPPIDLMHKGSFETAKECGQMQNKWLMINIQNVQDFACQCLNRDVWSNEAVKNIIREHFIFWQVYHDSEEGQRYIQFYKLGDFPYVSILDPRTGQKLVEWHQLDVSSFLDQVTGFLGEHGQLDGLSSSPPKKCARSESLIDASEDSQLEAAIRASLQETHFDSTQTKQDSRSDEESESELFSGSEEFISVCGSDEEEEVENLAKSRKSPHKDLGHRKEENRRPLTEPPVRTDPGTATNHQGLPAVDSEILEMPPEKADGVVEGIDVNGPKAQLMLRYPDGKREQITLPEQAKLLALVKHVQSKGYPNERFELLTNFPRRKLSHLDYDITLQEAGLCPQETVFVQERN
notes: Wild-type plasmid in pCMV5B; expressed in 293 or HeLa cells and pulled down on anti-Flag beads; also called RDB 2155; not shown: N-terminal Flag tag
In [3], B4 gave a sequence count of 77, a sequence coverage of 61.2% and a spectrum count of 375. Moreover, the binding result in [8] is recorded as “no binding”.

B5: endogenous UBXD7 (other, human, UniProt O94888 2-489, looked up)
chain: AAHGGSAASSALKGLIQQFTTITGASESVGKHMLEACNNNLEMAVTMFLDGGGIAEEPSTSSASVSTVRPHTEEEVRAPIPQKQEILVEPEPLFGAPKRRRPARSIFDGFRDFQTETIRQEQELRNGGAIDKKLTTLADLFRPPIDLMHKGSFETAKECGQMQNKWLMINIQNVQDFACQCLNRDVWSNEAVKNIIREHFIFWQVYHDSEEGQRYIQFYKLGDFPYVSILDPRTGQKLVEWHQLDVSSFLDQVTGFLGEHGQLDGLSSSPPKKCARSESLIDASEDSQLEAAIRASLQETHFDSTQTKQDSRSDEESESELFSGSEEFISVCGSDEEEEVENLAKSRKSPHKDLGHRKEENRRPLTEPPVRTDPGTATNHQGLPAVDSEILEMPPEKADGVVEGIDVNGPKAQLMLRYPDGKREQITLPEQAKLLALVKHVQSKGYPNERFELLTNFPRRKLSHLDYDITLQEAGLCPQETVFVQERN
Regarding B5, the binding result in assay [9] is reported as “binds”.
